According to paper PMC5339304:

Biological target: DC-specific intercellular adhesion molecule 3-grabbing non-integrin (DC-SIGN) (human) (UniProt Q9NNX6)
Test: atomic force spectroscopy (AFM force spectroscopy); MUB covalently attached to the AFM tip (MAL-PEG-SCM linker), DC-SIGN, SIGN-R1 or Dectin-2 covalently attached to glass slides (GMBS); PBS; force-volume mode, 2 um/s, maximum load force 300 pN; repeated after addition of 0.05 mg/ml anti-Mub antibody

modal value of binding strength: 684 pN
Substance: mucus-binding protein MUB of Lactobacillus reuteri ATCC 53608 (natural protein)
